Results taken from patent US20050214772, “Thio modified aptamer synthetic methods and compositions” (Board Of Regents, The University Of Texas System, published 2005).

Legend:
[1] = target: NF-IL6 (C/EBPbeta) tryptic core domain bZIP (TCD) (UniProt P17676); test: FP; details: Kobs, direct titration, normal phosphate backbone
NF-kB p50 homodimer [2] = target: T1, NF-kB p50 homodimer (UniProt P19838 P19838:1-433); test: EMSA; competition with 32P-IgkB; specificity lost on full thiolation; details: chain copies: 2 (stated)
T1 sequence (P19838 1-433, one chain of several): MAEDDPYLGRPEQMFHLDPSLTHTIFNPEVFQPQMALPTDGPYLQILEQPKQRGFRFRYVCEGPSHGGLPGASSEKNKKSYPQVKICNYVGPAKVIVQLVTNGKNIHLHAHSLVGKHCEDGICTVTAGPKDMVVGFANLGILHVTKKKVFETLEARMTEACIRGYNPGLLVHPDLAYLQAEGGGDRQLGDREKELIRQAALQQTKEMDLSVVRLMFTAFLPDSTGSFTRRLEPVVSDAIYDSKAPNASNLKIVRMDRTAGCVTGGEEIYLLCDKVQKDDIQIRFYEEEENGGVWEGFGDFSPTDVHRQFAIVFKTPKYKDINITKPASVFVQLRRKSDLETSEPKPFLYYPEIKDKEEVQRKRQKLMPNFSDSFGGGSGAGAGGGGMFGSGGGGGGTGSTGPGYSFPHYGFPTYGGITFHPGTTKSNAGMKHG
Description: In standard competitive binding assays, ³²P-IgκB promoter element ODN duplex was incubated with recombinant p50 or p65 and competitor oligonucleotide (A) phosphodiester CK-1; (B) phosphorothioate CK-1. The reactions were then run on a nondenaturing polyacrylamide gel, and the amount of radioactivity bound to protein and shifted in the gel was quantitated by direct counting. […] It is the recognition that [S]-ODNs with large numbers of phosphorothioate linkages are “sticky” and tend to bind with poor specificity to proteins that led to one of the embodiments of the present invention. Using the method disclosed herein it was determined that if the number of phosphorothioate linkages is reduced to only 2-4, specificity can be restored, but binding is not enhanced.

c-Rel homodimer [3] = target: T2, c-Rel homodimer (UniProt Q04864 Q04864:2-619); test: EMSA; single-copy site behaves similarly to CK-1; details: chain copies: 2 (stated)
T2 sequence: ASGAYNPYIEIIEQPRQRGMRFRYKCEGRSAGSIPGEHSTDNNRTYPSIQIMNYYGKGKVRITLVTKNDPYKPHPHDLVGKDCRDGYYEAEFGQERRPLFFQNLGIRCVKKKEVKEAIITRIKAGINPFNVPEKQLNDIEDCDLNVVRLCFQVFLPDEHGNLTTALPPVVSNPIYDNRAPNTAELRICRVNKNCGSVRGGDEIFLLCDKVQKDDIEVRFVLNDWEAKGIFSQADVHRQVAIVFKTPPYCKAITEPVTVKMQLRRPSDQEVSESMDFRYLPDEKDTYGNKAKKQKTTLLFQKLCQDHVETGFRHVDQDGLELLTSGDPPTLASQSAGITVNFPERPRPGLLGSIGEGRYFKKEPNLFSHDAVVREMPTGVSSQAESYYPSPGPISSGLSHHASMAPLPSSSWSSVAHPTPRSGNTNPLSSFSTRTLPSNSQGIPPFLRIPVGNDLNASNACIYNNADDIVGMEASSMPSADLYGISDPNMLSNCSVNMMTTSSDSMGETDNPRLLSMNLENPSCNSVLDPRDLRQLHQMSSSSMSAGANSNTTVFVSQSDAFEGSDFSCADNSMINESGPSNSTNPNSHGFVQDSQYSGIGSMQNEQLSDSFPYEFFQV

NF-kB p50 homodimer [4] = target: T1, NF-kB p50 homodimer; test: EMSA; full monothiolation loses specificity; details: chain copies: 2 (stated)
NF-kB p50 homodimer [5] = target: T1, NF-kB p50 homodimer; test: EMSA; labeled probe in competition assays; details: chain copies: 2 (stated); label: 32P
c-Rel homodimer [6] = target: T2, c-Rel homodimer; test: EMSA; binds and competes; details: chain copies: 2 (stated)

Chain of NF-IL6 (C/EBPbeta) tryptic core domain bZIP (TCD) (P17676 266-345): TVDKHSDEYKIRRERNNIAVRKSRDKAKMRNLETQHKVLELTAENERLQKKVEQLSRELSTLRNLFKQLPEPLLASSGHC

“TGCAGATTGCGCAATCTGCA (double strand) [C/EBPbeta palindromic 20-mer]” showed a Kd [1] of 10 nM.

B1: CK-1 phosphorothioate duplex (dsDNA)
DNA 1: CCAGGAGATTCCACCCAGGAGATTCCACCCAGGAGATTCCAC
DNA 2: GTGGAATCTCCTGGGTGGAATCTCCTGGGTGGAATCTCCTGG
modifications: PS all linkages
B1: binds (NF-kB p50 homodimer [2]).

B2: CK-14 phosphodiester duplex (dsDNA)
DNA 1: CCAGGAGATTCCAC
DNA 2: GTGGAATCTCCTGG
B2: binds (c-Rel homodimer [3]).

B3: CK-14 fully monothiolated duplex (dsDNA)
DNA 1: CCAGGAGATTCCAC
DNA 2: GTGGAATCTCCTGG
modifications: PS all linkages
B3: binds (NF-kB p50 homodimer [4]).

B4: IgkB promoter element 22-mer (dsDNA)
DNA 1: AGTTGAGGGGACTTTCCCAGGC
DNA 2: GCCTGGGAAAGTCCCCTCAACT
B4: binds (NF-kB p50 homodimer [5]).

B5: CK-1 42-mer phosphodiester duplex (dsDNA)
DNA 1: CCAGGAGATTCCACCCAGGAGATTCCACCCAGGAGATTCCAC
DNA 2: GTGGAATCTCCTGGGTGGAATCTCCTGGGTGGAATCTCCTGG
B5: binds (c-Rel homodimer [6]).
